According to the nanobody polyreactivity screen of Harvey et al. (2022):

Test: yeast display, Sf9 membrane polyspecificity reagent, FACS + sequencing; frameworks hold sequencing errors
How it was run: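 Using colony PCR, genes from sorted yeast display clones were amplified, then sequenced on MiSeq at 2 × 250 and filtered by CDR length. The clones had been stained with 10% biotinylated, detergent-solubilized Sf9 membrane reagent for 1 hour at 4 °C and sorted by FACS into low and high (top ~1%) gates on anti-HA and streptavidin fluorescence. Polyreactivity labels come from the gate of origin.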
With “QVQLVESGGGLVQAGGSLRLSCAASGGTLRGNAMGWYRQAPGKERELVAAISGSAGRTYYADSVKGRFTISRDNAKNTVYLQMTSLKPVDTAVYYCAASRRVVKMDYWGQGTQVTVSS” the “polyreactivity (PSR sort gate)” value was “high polyreactivity”. For “QVQLVESGGGLVQAGGSLRLSCAASGRIFGTNAMGWYRPAPGKERELVARITISTASTYYADSVKGRFTISRDNAKNTVSLQMNSLKPEDTAVYYCGVRWYIRSRPKVYKYDYWGQGTQVTVSS”, the “polyreactivity (PSR sort gate)” value was “high polyreactivity”. For “QVQLVESGGGLVQAGGSLRLSCAASGFIFSYYAMGWYRQAPGKERELVAAISRSGGSTYYADSVKGRFTISRDNAKNTVYLQMNSLKPEDTAVYYCAARYWRRYGQGYRYDYWGQGTQVTVSS”, the “polyreactivity (PSR sort gate)” value was “high polyreactivity”. In the case of “QVQLVESGGGLVQAGGSLRLSCAASGNTFSPNAMGWYRQAPGKERELVAALDSRDGITYYADSVKGRFTISRDNAKNTVYLQMNSLKPEDPAVYYCNAEGSYPDVSPVLGYDYWGQGTQVTVSS”, the “polyreactivity (PSR sort gate)” value is reported as “low polyreactivity”. With “QVQLVESGGGLVQAGGSLRVSCAASGRTFARYAKGWYRQAPGKERELVAVISRTGSTYYADSVKGRFTISRDNAKNTVYLQMNSLKPEDTAVYYCATVYYYLAYGWSYSDMDYWGQGTQVTVSS” the “polyreactivity (PSR sort gate)” value was “high polyreactivity”. With “QVQLVESGGGLVQAGGSLRLSCAASGNIFSDYAMGSYRQAPGKERELVAAISSGGNTNYADSVKGRFSISRDNAKKTVYLQMNSLKPEDTAVYYCAAFYNTTYTLLPAYSDVNYYYWGQGTQVTVSS” the “polyreactivity (PSR sort gate)” value was “low polyreactivity”. For “QVQLVESGGGLVQAGGSLRLSCAASGSIFASYVMGWYRQAPGKERELVASITLSGGSTYYADSVKGRFTISRDNAKNTVYLQMNSLKPEDTAVYYCAKRGTLWLQEDYYWGQGTQVTVSS”, the “polyreactivity (PSR sort gate)” value was “low polyreactivity”. For “QVQLVESGGGLVQAGGSLRLSCAASGYILPKNTMGWYRQAPGKERELVAAISWSGGSTFYADSVKGRFTISRDNAKNTVYLQMNSLKPEDTAVYYCAADRYWSWYYRYDYWGQGTQVTVSS”, the “polyreactivity (PSR sort gate)” value was “low polyreactivity”. For “QVQHVESVGGLVQAGGSLRVSCAASGTIFTFYTMGRYRPAPGKERELVAAISQTGGRTYYGDSVKGRFTISRDNAKNTVYLQMNSLKPEDTAVYYCAASVGRYAGNYWGQGTQVTVSS”, the “polyreactivity (PSR sort gate)” value was “high polyreactivity”. For “QVQLVESGGGLVQAGGSLRLSCAASGSTCWFYAMGWYRQAPGKEREVVATITSGGNTTYADSVKGRFTISRDNAKNTVYLQMNSLKPEDTAVYYCAAGWQAPWGYYYHFEYDYWGQGTQVTVSS”, the “polyreactivity (PSR sort gate)” value was “low polyreactivity”. With “QVQLVESGGGLFQAGGTHRLSCAASGFISKYYAMGWYRQAPGKERELVSSISRDGSTSYADSVKGRFTISRDNAKNTVYLQMNSLKAEDSAVYYCAAPSYRTRYYYWGQGTQVTVSS” the “polyreactivity (PSR sort gate)” value was “high polyreactivity”. For “QVQLVESGGGLVKAGGSLRLSCAASGSIFYSYAMGWYRQAPGKERELVAAITDSGDSTYYADSVKGRFTISRDYAKNTVYLQMNSLKPEDTAVYYCAAGFYPYYYWGLGTQVTVSS”, the “polyreactivity (PSR sort gate)” value was “low polyreactivity”. For “QVQLVESVGGLVQAGCTLPLSCAASGLIFYLYAMGWYRQATGKERELVARISRGGSTNYADSVKGRFTISRDNAKNTVYLQMNSLNPDDTAVYYCAADWFFSLGEMYYWGQGTQVTVSS”, the “polyreactivity (PSR sort gate)” value was “low polyreactivity”. With “QVQLVESGGGLLQAGGSLRLSCAASGRTSDYYAMGWYRQAPGKERELVAAISRSGGRTYYADSVKGRFTISRDNAKNSVYFQMNSLQPEDTAVYYCNAGGTPYVLDEYWGQGTQVTVSS” the “polyreactivity (PSR sort gate)” value was “high polyreactivity”. With “QVQIEESGGCLVQAGGSLRLTCAASGRIISWNAMGWSRQAPGKERELVAGITWNGGRTYYADSVKGRFTISRDNVKNTVYLQMNSLKPEDTAVFSCNAERFDLTYNYWGQGTQVTVSS” the “polyreactivity (PSR sort gate)” value was “high polyreactivity”. With “QVQLVESGGGLVQAGGSLRLSCAASGRTFRINAMGWYRQAPGKERELVAAITSGGRTNYADSVKGRFTISRDNAKNTVYLQMNSLKPEDTAVYYCAADTTHWYYLGYGYWGQGTQVTVSS” the “polyreactivity (PSR sort gate)” value was “low polyreactivity”. In the case of “QVQLVESGGGLVQAGGSLRLSCAASGYTFKTYAMGWYRQAPVKERELVAAISGSGGSTYYADSVKGRFTISRDNAKNTVYLQMNSLKPEDTAVYYCNASPTTTPNFWRYDYWGQGTQVTVSS”, the “polyreactivity (PSR sort gate)” value is reported as “high polyreactivity”. With “QVQLVESGRGLVQAGGSLRLSCAASGFTQPANGMGWYRQAPGIERELVAAISFIAGSTYYADSVKGRFTISRDNAKNTVYLQMNSLKPEDTAVYYCATLFPPSTIYDYWGQGTQVTVSS” the “polyreactivity (PSR sort gate)” value was “low polyreactivity”. With “QVQLVESGGGLVQAGGSLRLSCAASGSIFYYYTMGWDRQAPGKERELVADITYRGGSTYYADSVKGRFTISRDNAKNTVYLLMNSLKPEDTAVNFCAAASLVRGGHFDYWGQGTQVTVSS” the “polyreactivity (PSR sort gate)” value was “high polyreactivity”. In the case of “QVQLVESGGGLVQAGGSHRLSCAASGSTFFRNAKGWYSQAPGKEREWVAANSYSGDSTYYADSVKGRFTISRDNEKNTVSLQMNRLKPDDTAVYYSNAVLFRYRYNYWGQGTQVNVSS”, the “polyreactivity (PSR sort gate)” value is reported as “high polyreactivity”. In the case of “QVQLVESGAGLVQAGGSLRVSCAASGRTFAHYAMGWYRQAPGKERELVAAISSGASTNYADSVKGRFTISRDNAKNTVYLQMNSLKPEDTAVYYCAKQAKYHQGTYDYWGQGTQVTVSS”, the “polyreactivity (PSR sort gate)” value is reported as “low polyreactivity”. For “QVQLVESGGGLVQAGGSLRLSCAASGNIFITNAMGWYRQAPGKERELVADISFSGGSTNYADSVKGRFTISRDNAKNTVYLQMNSLKPEDTAVYYCAARALASVSAHKYDNWGQGTQVTVST”, the “polyreactivity (PSR sort gate)” value was “low polyreactivity”. With “QVQLVESGGGLVQAGGSLRLSCAASGFTLRRNAMGWYRQAPGKERELVAAISRGGSTYYADSVKGRFTISRDNAKNTVYLQMNSLKPEDTAVYYCNAGWFKYYPNLQAFNYWGQGTQVTVSS” the “polyreactivity (PSR sort gate)” value was “high polyreactivity”. In the case of “QVQLVESGGGLVQAGGSLRLSCAASGRIFPAYVMGWYRQAPGKERELVATIDNGGGTYYADSVKGRFTISRDNAKNTVYLQMNSLKPEDPAVYYCARDRHVRWGLKMDYWGQGTQVTVSS”, the “polyreactivity (PSR sort gate)” value is reported as “low polyreactivity”. With “QVQLVESGGGLVHAGGSLRLSCAASGSNFGYNAMGWYIQAPGKERELVAAITSIGGNTYADSVKGRFTISRDNAKYTVYLQMNSLKPEDTAVYYCAAERNTDPIQVVYEFDYWGQGSQVTVSS” the “polyreactivity (PSR sort gate)” value was “low polyreactivity”. In the case of “QVQLVESGGGLVQAGGSLRLSCAASGRTFRSYAMGWYRQAPGKERELVAAINTNGGSTYYADSVKGRFTISRDNAKNTVYLQMNSLKPEDTAVYYCRAWAQNQFNYWGQGTQVTVSS”, the “polyreactivity (PSR sort gate)” value is reported as “high polyreactivity”. In the case of “QDQLVESGGGLVQAGGSLRLSCAPSGFIFDDNAMGWYRQAPGKERELVAAITSGGGSTYYADSVKGRFTISRDNAKNTFYLQMNSLKPEDTAVYYCNKVYGWYSFKWGPTASDYWGQGTQVTVSS”, the “polyreactivity (PSR sort gate)” value is reported as “low polyreactivity”. With “QVQLVESGGGLVQAGGSLRLSCAASGSIFDQNAMGWYRQAPGKERELVAAITFSGVDTYYADSAKGRFTISRDNAKNTVYLQMNSLKPEDTAVYYCNADRGYNLVRRSQAVVEMDYWGQGTQVTVSS” the “polyreactivity (PSR sort gate)” value was “low polyreactivity”. For “QVQLVESGGGLVQAGGSLRLSCAASGTFQSNAMGRYRPAPGKERELVAAITSGGSTNYADSVKGRFTISRDNAKNTVYLQMNSLKPEDTAVYYCAAVRRYRASRGSLYYYWGLGTQVTVSS”, the “polyreactivity (PSR sort gate)” value was “high polyreactivity”. For “QVQLVESGGGLVQAGGSLRLSCAASGLIFYTYAMGWYRQAPGKEREFVAAISRRGGSTYYADSVKGRFTISRDNAKNTVYLQMNSLKPEDTAVYYCNARYTYPRPYEEYYYWGQGTQVTVSS”, the “polyreactivity (PSR sort gate)” value was “high polyreactivity”. With “QVQLVESGGGLVQAGGSLRLSCAASGRIFRRYAMGWYRQAPGKERELVAAISSGGSTYYADSVKGRFTISRDNEKNTVYLQLNSLKPEDSAVYYCNAKVGAYLNYGYWGQGTQVTVSS” the “polyreactivity (PSR sort gate)” value was “low polyreactivity”.
